Target: T1, peptide consisting of amino acid residues 44-72 of the human eIF5A protein (human, UniProt P63241 44-72)
T1 construct: range 44-72; also called human eIF5A (44-72) peptide
Assay: ELISA, screening of hybridoma antibodies on the peptide

T1 sequence (P63241 44-72 limits assumed): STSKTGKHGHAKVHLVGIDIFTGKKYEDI

binding result: binds
B1: anti-ORAIP antibody (clone YSP5-45-36) (antibody, V domains shown)
VH: EVKLVESGGGLVQPGGSLRLSCATSGFTFTDYYMSWARQPPGKALEWLGFIRNKANGYTTEYSASVKGRFTISRDNSLGILYLQMNTLRPEDSATYYCARNYYGTSFSWFAYWGQGTLVTVSA
VL: MTQTPLSLSVSLGDQASISCRSSQSIVHFNGNTYLEWYLQKPGQSPKLLIYKVSSRFSGVPDRFSGSGSGTDFTLKISRVEAEDLGVYYCFQGSHVPPTFGGGTKLEIK
notes: Mouse monoclonal antibody from a hybridoma (mouse IgG H and L chain primers were used for cloning); also called neutralizing antibody against secretory eIF5A
